Assay [1] has as its target T1, HGREM1-His (ACRO) (human, UniProt O60565 25-184).
T1 construct: Lys25-Asp184 of NP_037504 with C-terminal polyhistidine tag (ACRO GR1-H52H3); they are put here; also called hGREM1 (ACRO); human gremlin (ACRO)
T1 sequence: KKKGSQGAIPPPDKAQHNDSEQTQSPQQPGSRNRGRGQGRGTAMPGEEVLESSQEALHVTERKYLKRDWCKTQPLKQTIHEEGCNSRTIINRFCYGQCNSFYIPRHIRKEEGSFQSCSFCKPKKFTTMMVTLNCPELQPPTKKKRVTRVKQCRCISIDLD
Briefly: ELISA, coated hGREM1 (ACRO). Background: An ELISA detects its analyte on a solid surface through an enzyme-linked reagent.

For another assay, the target named is T2, XM5-Fc (human (hGREM1 with residues 123-143 …)).
T2 construct: also called gremlin 1-DAN fusion protein
T2 chain: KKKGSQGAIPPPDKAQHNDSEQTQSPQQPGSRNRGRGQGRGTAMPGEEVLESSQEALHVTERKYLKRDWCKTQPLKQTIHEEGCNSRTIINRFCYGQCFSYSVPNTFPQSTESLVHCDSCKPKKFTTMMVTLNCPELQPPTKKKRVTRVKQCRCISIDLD
In words: ELISA on coated XM5-Fc (column XM5). How it is done:
Binding affinities to hGREM1 and XM5 were also compared. Briefly, XM5-Fc or Gremlin-his […] was coated. 100 μl of block solution consisting of PBS+1% BSA+1% normal goat serum+0.5% Tween 20 (Sigma) was added to each well and incubated at room temperature for 2 hours. 4-fold serial antibody dilution from 2 μg/ml were added. Afterward the plates were washed three times with 200 ul of PBS+0.1% Tween20 followed by adding 100 μl/well 1:10000 Goat anti mouse IgG-HRP (abeam), and incubate for 1 hour at room temperature. They were then washed 3× with PBS+0.1% Tween20. Finally, 100 μl/well of TMB (InnoReagents) was added to each well and after 2 minutes add 50 ul of stop solution to each well. The plates were read on a Multiscan FC microplate reader (Thermo Scientific) at […]. The EC50 values were show in table below.

In assay [2] the target is T1, HGREM1-His (ACRO). In words: competition ELISA, Gremlin-his binding to coated BMP7.
The target in assay [3] is T1, HGREM1-His (ACRO). In words: blocking ELISA, Human Gremlin-1 binding to BMP2; column OD450. The procedure:
(§1) In addition, the ability of serial dilutions of antibodies provided herein to block Gremlin binding to human BMP2/4/7 was also examined via ELISA. Plates were coated with recombinant human BMP2/4/7 (0.5 μg/ml) overnight and then serial dilutions of antibodies were incubated with 1 μg/ml of human Gremlin-his modified for 1 h at RT before this complex was added to coated plates and allowed to incubate for an additional hour at RT. The plates were then washed and added with anti-his HRP (GenScript). Plates were then developed with a TMB solution and stopped by adding stop solution. The plates were read on a plate reader at 450 nm. […] The chimeric anti-gremlin 1 antibodies (69H5-chi) and chimeric anti-gremlin 1 antibodies (22F1-chi) also can inhibit the binding of gremlin to BMP2 and BMP4 (see, FIG. 3E and FIG. 3F). The chimeric anti-gremlin 1 antibodies (56C11-chi) can inhibit the binding of gremlin to BMP2 (see, FIG. 3E).

The target of assay [4] is T1, HGREM1-His (ACRO). Briefly: blocking ELISA, Human Gremlin-1 binding to BMP4; column OD450. How it is done:
as §1

The target of assay [5] is T1, HGREM1-His (ACRO). Briefly: blocking ELISA, Human Gremlin-1 binding to BMP4; column Percentage. The procedure: as §1
In a further assay the target is T3, human gremlin-2 (R&D) (human, UniProt Q9H772 22-168, limits assumed).
T3 construct: also called GREM2
T3 sequence (looked up): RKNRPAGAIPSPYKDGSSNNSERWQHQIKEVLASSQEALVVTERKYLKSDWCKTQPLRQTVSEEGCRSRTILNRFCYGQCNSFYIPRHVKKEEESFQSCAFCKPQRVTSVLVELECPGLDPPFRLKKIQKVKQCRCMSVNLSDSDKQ
Briefly: ELISA on coated human gremlin-2 (R&D, 0.5ug/ml), anti-mouse IgG-HRP. How it is done: In addition, the specificity of the binding of 14E3 and a benchmark antibody was assessed with ELISA. Briefly, clear polystyrene plates (BEAVER) were coated with 100 μl/well of a […] hGREM1 (ACRO), or human gremlin-2 (R&D), human COCO (R&D) and human DAN protein (R&D) in high pH coating buffer overnight at 4° C. Then the plates were washed once on an automatic plate washer using PBS+0.1% Tween 20 (Sigma). 100 μl of block solution consisting of PBS+1% BSA+1% normal goat serum+0.5% Tween 20 (Sigma) was added to each well and incubated at room temperature for 2 hours. Then 100 ul of antibodies in antibody dilution buffer containing PBS+1% BSA+1% normal goat serum+0.01% Tween 20 starting from 2 μg/ml and then 5 fold serial dilution were added to each well of the plate and incubated for 1 hours at room temperature. Afterward the plates were washed three times with 200 ul of PBS+0.1% Tween20 followed by adding 100 μl/well 1:10000 Goat anti mouse IgG-HRP (Abcam), and incubate for 1 hour at room temperature. They were then washed 3× with PBS+0.1% Tween20. Finally, 100 µl/well of TMB (Pierce) was added to each well and after 5 minutes add 50 ul of stop solution to each well. The plates were read on a Multiscan FC microplate reader (Thermo Scientific) at […].

Some results are limits rather than exact numbers.

B1: 36F5 (antibody, V domains shown)
VH: QVQLQQSGAELARPGASVKLSCKASGYSFTSSGIGWVKQRSGQGLEWIGEIYPRSGNTYNNEKFKGKATLTADKSSSTVYMELRSLTSEDSAVYFCVREAYSHHYYAMDYWGQGTSVTVFS
VL: DVLMTQTPLSLPVSLGGQASISCRSSQSLLHSNGNTYLEWYLQKPGQSPKLLIYKVSNRFSGVPDRLSGSGSGTDFTLKISRVEAEDLGVYYCFQGSHVPFTFGSGTKLEIN
notes: mouse hybridoma antibody; also called hybridoma 36F5
A word on the EC50: it is the concentration giving half of the maximal effect. Broadly, the IC50 is the concentration needed to halve the response being measured. Low readings indicate greater potency, high ones weaker potency. For the molecule B1, the results for the EC50 with HGREM1-His (ACRO) [1] and with XM5-Fc were 0.00587 µg/mL and 0.00692 µg/mL, respectively. In the assay with HGREM1-His (ACRO) [2], the maximal blocking percentage is at least 50%. Also, the IC50 in the assay with HGREM1-His (ACRO) [3] was 0.604 µg/mL; in the assay with HGREM1-His (ACRO) [4], 0.512 µg/mL; in the assay with HGREM1-His (ACRO) [5], 0.512 µg/mL.

B2: 14E3 (antibody, V domains shown)
VH: QIQLVQSGPELKKPGETVKISCKTSGSTFTTYGMAWMKQAPGKGLTWMGWINTLSGEPTYADDFKGRFAFSLKTSANTAYLQINNLKNEDAATYFCAREPMDYWGQGTSVIVSS
VL: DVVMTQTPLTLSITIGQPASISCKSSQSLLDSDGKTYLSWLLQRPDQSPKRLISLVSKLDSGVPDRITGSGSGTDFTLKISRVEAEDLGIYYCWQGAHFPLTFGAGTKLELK
notes: mouse hybridoma antibody; also called hybridoma 14E3; anti-gremlin1 antibody 14E3
With B2, in the assay with HGREM1-His (ACRO) [1], the response was half-maximal at 0.0136 µg/mL (EC50). The binding result with human gremlin-2 (R&D) was “no binding (tested: 1 ug/ml)”.

(Values after patent publication US20240294622A1 (SUZHOU TRANSCENTA THERAPEUTICS, published 2024).)
